Source: the DeepSol protein solubility set

assay: soluble on expression in E. coli; label from the status in PepcDB or PDB records

Sequence | soluble on expression in E. coli
MEGTLSFVSGFAPAVYRRELFRHRCVTTAPEARAWPRLGLLRANSGARLSRVDITPEIYKRLVSMAKRTEGNFSAVAGAILESYLTAATNRDLRAVIFDMDGVLCDSERLSRAAGVEYFRRYHGVWPTEKDFADFAGTGEAAFLSGVARRYSVKDFDVNKAKEGFFNIYVNEYVSALEPFEGVREFIQQIKTMGLKTALASSADAIKVHANLSAIGFERDMFDFVTRSDEIANKKPAPDIFLAAAEGLGVPPESCVVIEDAPAGVLAAKRARMRCVAVATSVSAQLLWDAGADIVRPAPQYIMLDDIVITDDADASAPASASQE | soluble
MLSNNVNPVVGLSYRPLPETPPSGQAAAHPSMRLLEPNNDEFVRSVASPRLHHSSEALREVKHDVRQFQASGDRSLQQLRDLEVALNHWEASQPREFAKRGGMVAELRTAIDAYKQQLHEQAPSHANLDVKWLDGLRAGSMALQGDVKVWMQNLEDLHTRRPDEFAARLQQSTDALYSHLEAQWAKQHGTPPTASDVAGMPQWQEYTAMLRERFAGLDTIRPNLTAEENGVAILKTQTQLLALQRAQEALQASLADGVSHQGDVGLLRTQLLAGMVEGLIALQQADDDSALWSRPSAADSGGRLSVEAGAKASTDFEAPASKGELLRGKGISGEAVLEAFANIEMSVSGSRAGAAGEAEGSLRLYGESTARAEVSGSFEPFALSGSIGREEADGDTAASANPVLSLNVSAELSSKLGLEAQGSVTLGSLLKLDAEGRAEVGASAEVSGTAAIDKRSDGLGVRLEGQAEAFAGLKAEGTLTANLLHSKYADAHGLTASVTGSANVGLGATAEGKLVASPGQFEMGGEVGTTLGVGGNIGWNSKVDVNASTAYAYELASAAMARFDALRASQLDHDAKTSGNESQLNRLAANLQSHIDATSQKLDALNSAGVESRIRKVDGFAAGDGAQAAAGLAAQMALVGTGADLSHDIKITALNLRA | not soluble
KKKPLIGMVHLKPLPGSYHYNDNFDDIVDFAIKEAKKLEEAGFDAVMIENFGDAPFKKEADKITIASMAVIAKAIKEEVSLPLGINILRNDAIGAYSIAYVVKADFIRVNVLSGVAFTDQGIIEGKAYELAKLKKLLPSKIKVFADVHVKHAYHFIDFESSLLDTVERGLADAVIISGKRTGKEVDIEKLKLAKELVDVPVIVGSGTNYNNLRILWSYADGFIIGTWIKKDGKANNEIDIDRAKKIVNLANKLKM | not soluble
MGHHHHHHSHMSDWLEHSVQVEVAVPVARAWELWSDLEQMPRWMKWIDSVQVQKDDPELSRWKLASQGFEFSWLSRITRLVPQQLIQWESVDGLPNRGAIRFYDRQDHSIVRLSISYAIPGGLGPLMDKLFLGRIVEGTLKADLDRFRHYAESPR | not soluble
MGHHHHHHSHMTAPFFPRILGAVAFLNQETEPLTMNLQHHFLIAMPALQDPIFRRSVVYICEHNTNGAMGIIVNKPLENLKIEGILEKLKITPEPRDESIRLDKPVMLGGPLAEDRGFILHTPPSNFASSIRISDNTVMTTSRDVLETLGTDKQPSDVLVALGYASWEKGQLEQEILDNAWLTAPADLNILFKTPIADRWREAAKLIGVDILTMPGVAGHA | soluble
KETVPYQIPYTPSELEELQQNIKLELEGKEQELALELLNYLNEKGFLSKSVEEISDVLRCSVEELEKVRQKVLRLE | soluble
MGSDKIHHHHHHMGKLLTPDDLPIVRGRVYHLDLAPEELARRVIVVGDPDRVPVLAEELLALREVDRFHRGFRTITGVTAETGQRVSFVTSGIGAPSTEIVLNELAALNEVDFASMTRRERWQPLTLVRLGTSGGLNPVTPVGTLILTDYVVGLDNTALYYDIPLPDEACALLEEKVGSVLTGTELPGARFAGKIAPYAARSDRGLLASLTAAASTLELNWTRGLTISSAGFFAEQGRGVARVGTTQVNLLDAFERLASPWPGLELQNMEMEAGFFLHFLGGMRYRAAVVCVVINQRSSGVFMADYRRQVLDGARLILRAFKEYGDARAKSGALA | not soluble
MKHMPRKMYSCAFETTTKVEDCRVWAYGYMNIEDHSEYKIGNSLDEFMAWVLKVQADLYFHNLKFAGAFIINWLERNGFKWSADGLPNTYNTIISRMGQWYMIDICLGYKGKRKIHTVIYDSLKKLPFPVKKIAKDFKLTVLKGDIDYHKERPVGYKITPEEYAYIKNDIQIIAEALLIQFKQGLDRMTAGSDSLKGFKDIITTKKFKKVFPTLSLGLDKEVRYAYRGGFTWLNDRFKEKEIGEGMVFDVNSLYPAQMYSRLLPYGEPIVFEGKYVWDEDYPLHIQHIRCEFELKEGYIPTIQIKRSRFYKGNEYLKSSGGEIADLWLSNVDLELMKEHYDLYNVEYISGLKFKATTGLFKDFIDKWTYIKTTSEGAIKQLAKLMLNSLYGKFASNPDVTGKVPYLKENGALGFRLGEEETKDPVYTPMGVFITAWARYTTITAAQACYDRIIYCDTDSIHLTGTEIPDVIKDIVDPKKLGYWAHESTFKRAKYLRQKTYIQDIYMKEVDGKLVEGSPDDYTDIKFSVKCAGMTDKIKKEVTFENFKVGFSRKMKPKPVQVPGGVVLVDDTFTIK | soluble
MKLSVLDQSPIAYGSNAKEALRQTTELAKVTEALGYHRFWVSEHHDASTLAGSSPEVLIAHLAAHTKKIRLGSGGVMLPHYSAYKVAENFKLLEALHPGRIDVGLGRAPGGMPIAKMALQEGKEQNIHKYPLQVKDVIGYLQDDLPTDHRFHGLKATPLIDTVPDVWLLGSSGGSANVAAENGTGFAFAHFINGEGGVQAVESYRETFQPSALFDRPQTSVAIFVICADTDEQADQIASSLDLSLIMLENGQLSKGTPSIESALSYPYSPFERARIRENRKRMIVGSPKAVRQQLVELARAYETEEVIVVTITHRFEDRIRSYELLGEEWNVN | not soluble
MEPAAGFLSPRPFQRAAAAPAPPAGPGPPPSALRGPELEMLAGLPTSDPGRLITDPRSGRTYLKGRLLGKGGFARCYEATDTETGSAYAVKVIPQSRVAKPHQREKILNEIELHRDLQHRHIVRFSHHFEDADNIYIFLELCSRKSLAHIWKARHTLLEPEVRYYLRQILSGLKYLHQRGILHRDLKLGNFFITENMELKVGDFGLAARLEPPEQRKKTICGTPNYVAPEVLLRQGHGPEADVWSLGCVMYTLLCGSPPFETADLKETYRCIKQVHYTLPASLSLPARQLLAAILRASPRDRPSIDQILRHDFFTKGYTPDRLPISSCVTVPDLTPPNPARSLFAKVTKSLFGRKKKSKNHAQERDEVSGLVSGLMRTSVGHQDARPEAPAASGPAPVSLVETAPEDSSPRGTLASSGDGFEEGLTVATVVESALCALRNCIAFMPPAEQNPAPLAQPEPLVWVSKWVDYSNKFGFGYQLSSRRVAVLFNNGTHMALSANRKTVHYNPTSTKHFSFSVGAVPRALQPQLGILRYFASYMEQHLMKGGDLPSVEEVEVPAPPLLLQWVKTDQALLMLFSDGTVQVNFYGDHTKLILSGWEPLLVTFVARNRSACTYLASHLRQLGCSPDLRQRLRYALRLLRDRSPA | soluble
MKVASGSTATAAAGPSCALKAGKTASGAGEVVRCLSEQSVAISRCAGGAGARLPALLDEQQVNVLLYDMNGCYSRLKELVPTLPQNRKVSKVEILQHVIDYIRDLQLELNSESEVGTPGGRGLPVRAPLSTLNGEISALTAEAACVPADDRILCRLEHHHHHH | soluble
MSLSRTTQLPFAKRQFFQVLARNYSNTQDADLVVIGGGPGGYVAAIKAAQLGMKTVCVEKNATLGGTCLNVGCIPSKALLNNSHYLHMAQHDFAARGIDCTASLNLPKMMEAKSNSVKQLTGGIKQLFKANKVGHVEGFATIVGPNTVQAKKNDGSVETINARNILIASGSEVTPFPGITIDEKQIVSSTGALSLGQVPKKMVVIGAGVIGLELGSVWQRLGAEVTAVEFLGHVGGMGIDGEVSKNFQRSLTKQGFKFLLNTKVMGASQNGSTITVEVEGAKDGKKQTLECDTLLVSVGRRPYTEGLGLSNVQIDLDNRGRVPVNERFQTKVPSIFAIGDVIEGPMLAHKAEDEGILCVEGIAGGPVHIDYNCVPSVVYTHPEVAWVGKAEEQLKQEGVAYKIGKFPFVANSRAKTNNDQEGFVKVLADKQTDRMLGVHIIGPNAGEMIAEATLAMEYGASAEDVARVCHPHPTLSEAFREANLAAYCGKAINNV | not soluble
HRSGGFPVYKNTKVTYFPNGQSKFEEMKKQLLKAEKFIFLEYFIIAEGLMWGEILSILEQKVQEGVEVRVMYDGMLELSTLSFDYAKRLEKIGIKAKVFSPITPFVSTYYNYRDHRKILVIDNKVAFNGGINLADEYINQIERFGYWKDTAVMLEGEGVASFTLMFLQMWSTTNKDYEFAPYLTQNFHEIVANGYVIPYSDSPLDHEKVGENV | not soluble
MNKNLKFTQMMIGISTMALSFGSIQTHVSAEETASYNILQMKPIGTETSKDEIVHATKADETLTFEERLKVGDFSQRPTLVMERDEIQLKQSYTLAELNKMPNSELIDTLSKISWNQITDLFQFNQDTKAFYQNKERMNVIINELGQRGRTFTKENSKGIETFVEVLRSAFYVGYYNNELSYLKERSFHEKCLPALKAIAKNPNFTLGTAEQDRVVAAYGKLIGNASSDTETVQYAVNVLKQYNDNLTTYVSDYAKGQAVYEIVKGIDYDIQSYLQDTNKQPNETMWYGKIDNFINEVNRIALVGNITNENSWLINNGIYYAGRLGKFHSNPYKGLEVITQAMSLYPRLSGPYFVAVEQIKTNYGGKDYSGKAVDLQKIREEGKRQYLPKTYTFDDGSIVFKTGDKVTEEKIKRLYWAAKEVKAQYHRVIGNDKALEPGNADDVLTIVIYNNPDEYQLNRQLYGYETNNGGIYIEEKRTFFTYERTPKQSIYSLEELFRHEFTHYLQGRYEVPGLFGSGEMYQNERLTWFQEGNAEFFAGSTRTNNVVPRKSMISGLSSDPASRYTAKQTLFSKYGSWDFYKYSFALQSYLYNHQFDTFDKLQDLIRVNDVKNYDSYRESLSNNTQLNAEYQAYMQQLIDNQDKYNVPQVTNDYLIQHAPKPLAEVKNEIVDVANIKDAKITKYESQFFNTFTVEGKYTGGTSKGESEDWKTMSKQVNRTLEQLSQKGWSGYKTVTAYFVNYRVNAANQFEYDIVFHGVATEEKEKTNTIVNMNGPYSGIVNEEIQFHSDGTKSENGKVTSYLWNFGDGTTSTEANPTHVYEEKGTYTVELTVKDRRGKESKEQTKVTVKQDPQTGEFHEEEKVLLFNTLVKGNLVTPDQTDVYTFDVTDTKEVDISVVNEQNIGMTWVLYHESDMQNYVACGEDEGNVIKGKFEAKPGKYYLNVYKFDDKNGEYSLLVK | not soluble
MIDTNLLRVTVCDEGELEKSTTHFIGSRKIEPEQWITWASECKYLPESDAVALCATLIDRLSLEANVVPVSSPVTICGDIHGQFYDLLELFKTGGTVPNTKYVFMGDYVDRGHYSLETVTLLFCLLLKYPNQITLLRGNHESRRISNVYGFYDECQNKYGHGNVHKWFCKVFDVLPIGALIDESVLCVHGGLSPDIRTIDSLMLLDRAQEVPNKGPLCDIMWSDPDDDVEDWVISQRGAGFVFGAKVTEEFLMNNDLSLLCRSHQLVDEGFKYMFNEKLATVWSAPNYCYRCGNAAAVFEIDGNNRSTKYFNAVPDGSREKPDRVVAPYFL | not soluble
MRVALTIAGSDSGGGAGVQADLKVFFRFGVYGTSALTLVTAQNTLGVQRVHLLPPEVVYAQIESVAQDFPLHAAKTGALGDAAIVEAVAEAVRRFGVRPLVVDPVMVAKSGDPLLAKEAAAALKERLFPLADLVTPNRLEAEALLGRPIRTLKEAEEAAKALLALGPKAVLLKGGHLEGEEAVDLLATRGGVLRFSAPRVHTRNTHGTGCTLSAAIAALLAKGRPLAEAVAEAKAYLTRALKTAPSLGHGHGPLDHWA | soluble
MAPRGRYGPPSRRSENRVVVSGLPPSGSWQDLKDHMREAGDVCYADVYRDGTGVVEFVRKEDMTYAVRKLDNTKFRSHEGETAYIRVKVDGPRSPSYGRSRSRSRSRSRSLEH | soluble
MNFDEIDKTFGTKNRDQGYDLLKARLDKGDRSVEVLWRLAQVIHEKSACVPKAQRKASVTEGLKFAEEAVQKDPNHFKALKWNAVLTGQATEYMATKEKLECSKKFKELLDKTLAKEPKDTAVLHLRGRYKYSVASLTWLEKKLAATFYQQPPSHSYEEANEDFLAAYKVNPKWMENTFYVSKCYVAIKDKANARKYLTEVCDIEPYSDAEQEFADDAKQMLSKL | soluble
